In patent US20030124602:

Test system: Flag epitope tagged CTMPs (F.CTMPs; CTMP starting at the natural ATG of the cDNA)
Sequence (chain, as listed by the source): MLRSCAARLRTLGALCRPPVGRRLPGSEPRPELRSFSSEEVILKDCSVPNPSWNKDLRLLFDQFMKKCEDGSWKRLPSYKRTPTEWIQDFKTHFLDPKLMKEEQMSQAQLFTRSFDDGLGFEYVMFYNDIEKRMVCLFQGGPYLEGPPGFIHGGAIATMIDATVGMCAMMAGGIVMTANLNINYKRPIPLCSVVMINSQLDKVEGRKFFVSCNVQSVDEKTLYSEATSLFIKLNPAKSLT

HA epitope-tagged PKB alpha (HA-PKBα, pCMV5-HA-PKBα)
phosphorylation of PKB on Thr 308 and Ser 473, Western blot with phospho-specific antibodies: CTMP expression leads to a reduction of phosphorylation on both residues but most notably on the S473 site
